Test results from the DeepSol protein solubility set.

assay: soluble on expression in E. coli; label from the status in PepcDB or PDB records

Soluble on expression in E. coli, not soluble:
MAHHHHHHMPKIRPGMKRPPPGFEKINDKLDEYDAEMRLALSEDPSQAELPVPSKRKDKQNKVEATKDKHAQSVQRGDGGVAGHSDGELDKPEPPLWRVARINRERTRYVFNACFRERIIAEEVLDYCCEMNFIDAGLVRRWSLAGYERLCCNTCCLPGAASEAARMVNKFANRDKKDRRTNGNDDTGGTCICRVPDEKRLAKAFTRCMVCGCSGCGSGGKRKHDTEEKDSVSDMKKVRTDDYEVKSGK
TPAAPISTVADGDWPAYGRNQEGQRFSPLKQINADNVKNLKEAWVFRTGDLKQPNDPGEITNEVTPIKVGDTLFLCTAHQRLFALDAATGKEKWHFDPQLNADPSFQHVTCRGVSYHEAKADNAPADVVADCPRRIILPVNDGRLFAVNADNGKLCETFANKGILNLQTNMPVTTPGMYEPTSPPIITDKTIVIAGAVTDNFSTREPSGVIRGFDVNTGKLLWAFDPGAKDPNAIPSDEHHFTLNSPNSWAPAAYDAKLDLVYLPMGVTTPDIWGGNRTPEQERYASSIVALNATTGKLAWSYQTVHHDLWDMDMPSQPTLADIEVNGKTVPVIYAPAKTGNIFVLDRRNGELVVPAPEKPVPQGAAKGDYVTKTQPFSDLSFRPKKDLTGADMWGATMFDQLVCRVIFHQLRYEGIFTPPSEQGTLVFPGNLGMFEWGGISVDPNRQVAIANPMALPFVSKLIPRGPGNPMEPPKDAKGSGTESGVQPQYGVPYGVTLNPFLSPFGLPCKQPAWGYISALDLKTNEVVWKKRIGTPQDSLPFPMPVKLPFTMGMPMLGGPISTAGNVLFIGATADNYLRAYNMSNGEKLWEARLPAGGQATPMTYEVNGKQYVVISAGGHGSFGTKMGDYIVAYALPDDAK
MSLDSKRYTFLLGPGQSCRTATDNFIALYDKRNSLEIKDIENAFNVEALSKEFFGKYKAQYEAFVNYMVDPTNGMRQHFIDTGFDHTGMAADKIRDREEKPIRDYVKKLLGRIVFLHFLQKKGWLGVPASKEWGEGDRDFMLNIFKNANERQKENFLDDILEDLFTEGLDRNRSDQGDLYDTKVEGFRNCRIPYLNGGLFERDILDKKPSHFPASYFNGLLTMLSQYNFTIDENDPNDAEVGVDPEMLGRIFENLLEDNKDKGAFYTPKEIVQYMCRESLIAYLQTDMREEDKECIRQFVTTHDASQLGELKEYIDQKLYDVKICDPAIGSGAFPMGLLRELFFCRSAIEPNIVENAANIKRHIIQNNIYGVDIERGAVDIARLRFWLSLIVDEKSPEALPNLDFKIMQGNSLLEQYKGVDLSTEGHHHHHH
TKAHRDAARRIAAESFVLLKNDNVTLRPGTPAEPLLPFNPKGNIAVIGPLADSRTNMPGTWSVAAVLDRCPSLVEGLKEMTAGKANILYAKGSNLISDASYEERATMFGRSLNRDNRTDEQLLNEALTVANQSDIIIAALGESSEMSGESSSRTDLNIPDVQQNLLKELLKTGKPVVLVLFTGRPLTLTWEQEHVPAILNVWFGGSEAAYAIGDALFGYVNPGGKLTMSFPKNVGQIPLYYAHKNTGRPLAQGKWFEKFRSNYLDVDNEPLYPFGYGLSYTTFSYGDIDLSR
MTEQKNKTSLIEFPCTFPLKVMGAVHPEFEQAVLDTVRLHAPDTQAHHITTRPSSKGNYTGATVQVKVENQEQLDNIYRALTSHELVKVVL
MHSDEEIFKDTTTKALLQLLKKDIDFHEYCYQEIFPRGKEIKMNDNKNFKIYLVESGYFAYCLKNEYGDFGIISFVGGEIAINLIPLIKEEPEDAFLRCLTQVRCWVLDPDFVGRVLDENNQKAKFLLSNLLYTRKVYFKASKRTFMKKELRIRACLKEIGLYMGRVTKDKDFILPDEINNSILAQYANTTREYTNIIVLKLRKEGILDDSHKPWVIKKIDEL
MIDQFKFLNPQALISIFGKIPKFEESELLDVRLKRDGPTLVIQLMTKENVENKPKRWNKWDVIYVEISFFTIHNLTIKGLGTENIIDYFEINTIEEEGLLKIKCKNQMLVECSFEWAKVEGVTPGLIGLP
MTRFSGKVALVTGSSNGIGRATAVLLAQEGAKVTITGRNADRLEETRQEILKSGVPEDHVLSIATDLATEKGQDELVNSTIQKFGRLDILVNNAGAAFNDDQGRVGVDQDVSVYDRIMQINMRSVVTLTQKAKEHLVKAKGEVVNVSSIGAGPQAQPTFMYYAMSKAALDQYTRSAAIDLIQYGVRVNSVSPGAVVTGFGEAMGMPADMHEKYGHFMESRKECIPCGKMGQPIDIANIIAFLADRKLSSYIIGQSIVADGGSTLVMGMQAHNFMDLLKQ
MSASLRQSELTIRACILYEALGKNPIQLSYYNFCTRVGNGVMGFSDFEFWYDRFSNGNHDLDYDRSVNQVPKSLPEMPKSEKTEISEIGTQVDIVELLNLMKVSQSVAQKRKVVLDSLVVQFYEGESCSRLIFNDRYIIKYEKKDQGCTVSYSDNRASSDSRKKEINVTDEDYVELCIKDLKLLMENRMVHLKTFRFAIIAVATKEFREKCMKRVEEALKTAKSLTSRTVETTGGYLLELAQLMAIFPAKNVEEIRFTGDGTIGSEQLVSLEQWKNARKFDGMRDLNVPIEHFLHFETFIVYLSVFTEDDAVKLRDMIDRSAHFCYARLHFKSMNIRTLMGVFDVYNTEHNIVYQTPDQRYFNVRFYSNELQITKSAILNFQIE
GPGSMQQSLIPGHNNNRHLTVEEIENNIGGLAITDNKLQELFDSLDVERTGYLPIGEVKKFYKGLEHYGLEPTDAEIESEMKKFAKSDENFMSYDEFCCLMLSFAQR

Soluble on expression in E. coli, soluble:
MNRIEHYHDWLRDAHAMEKQAESMLESMASRIDNYPELRARIEQHLSETKNQIVQLETILDRNDISRSVIKDSMSKMAALGQSIGGIFPSDEIVKGSISGYVFEQFEIACYTSLLAAAKNAGDTASIPTIEAILNEEKQMADWLIQNIPQTTEKFLIRSETDGVEAKK
MKVERGDVIRLHYTGRVKETGQIFDTTYEEVAKEAGIYNPKGIYGPVPIIVGAGHVISGLDKRLVGLEVGKKYTLEVPPEEGFGLRDPKLIKVFTMGQFRKQGIVPFPGLEVEVTTDNGRKMKGRVITVSGGRVRVDFNHPLAGKTLIYEVEIVEKIEDPIEKIKALIELRLPMIDRDKVIIEVGEKDVKVNFGEQDVDPKTLILGEILLESDIKFLGYEKVEFKPSVEELLRPKQEEPVEEEKKEEQEESEEAQSS
MSLRILDIREQAIPVSRYDDPAIASGGLTTSIVAIVTDVVRDGRPVTGYGYASAGRFAQGGLIRERFAPRLLAAAEALADDAGTNLDPLRAWRAMMAGEKPGGHGERCVAVGTLDMAIWDAAAKIARVPLHCLIADRLGRAAPARTARVRVYAGGGYRYPRDDLARLSDEMRRIVDLGYTHAKIKIGATDLDVDRRRIEAAAARLADSAHLAVDAMNAYDATNAGDAAAMLAPFGLWWFEDVCDPLDLPLHAQLAAQYAPPIAAGEALFSLAEAKLLDRYGGLRSDRDVLVFDPVHCYGLSGYLQIVDHFVSRGWRRDAFWPHGGHLFSLHVVAALGLGGAEVNPFAFHPFSGLADGERVDAGYAALPSAPGIGFECHARVHAAFRALSVREGHHHHHH
MEPIDIARLEEAVVSFYRSNSQNQAITHEWLTDAEASPQAWQFSWQLMQLGKSQEVQFFGAITLHSKLMKHWHEVPPENREELKQKILESIVRFAGGPKIVLNRLCISLGAYIVHMLGEWPGAIEEVINTFQNQRMPNVSADVQLWIMLEVLTAIPEEAQVIHTSVKRVVLRAEIAKRVQLVIHTVERYLKLQMNRVWDAEAYSNMNRAVKCVGTWIKNIGYTIEGCVTITAVLLEVVHKCYWPCIHAGDGCMTADENELAESCLKTMVNIIIQPDCHNYPKTAFVLIKMFLDSLSEITKTEWKRENDNEDIIVHIYMLFVSSVERHSTLLLSGITSADPELSILVHRIVQEILHCTDKPGIYPVEESCSTMALAFWYMLQDEVFAMSNDEQKHKCWEYIKPLYAHLTRILVRKSEQPDEKSLAKWSSDDLECFRCYRQDISDTFMYCYDVLNDYILEILAAMLDEAIADLQRHPTHWTKLEACIYSFQSVAEHFGGEEKRQIPRLMRVLAEIPYEKLNVKLLGTALETMGSYCNWLMENPAYIPPAINLLVRGLNSSMSAQATLGLKELCRDCQLQLKPYADPLLNACHASLNTGRMKNSDSVRLMFSIGKLMSLLRPEEIPKYLDIIVSPCFEELQAICQADSKTPAARIRTIFRLNMISTLFSSLNTDVDEQATDQPIVQPVLLVMQRTMPIFKRIAEMWVEEIDVLEAACSAMKHAITNLRSSFQPMLQDLCLFIVASFQTRCCAPTLEISKTAIVMFFKDEGCKPLMQQLLREFIQHSFKLFESTPEQNFSNISDTMETFFGCLTQIIKKIPQVLEDKTLAYDRLVFYAQRGMTLPESGAIRNSIQFLTHFVMQSRNHAHVTEVVLATGEQTLYTAMMCVGYLTPRSQVDKFADILLAMNRKYAAEMAVWMKSLMSTPNFPTQLITDADKTRYTALIIKEKVNKRLLQQHLSEMAMKTRGLTEKFQ
GSRTVDLELELQIELLRETKRKYESVLQLGRALTAHLYSLLQTQHALGDAFADLSQKSPELQEEFGYNAETQKLLCKNGETLLGAVNFFVSSINTLVTKTMEDTLMTVKQYEAARLEYDAYRTDLEELSLGPRDAGTRGRLESAQATFQAHRDKYEKLRGDVAIKLKFLEENKIKVMHKQLLLFHNAVSAYFAGNQKQLEQTLQQFNIKLRPPGAEKPSWLEEQ
MSLENGVLKVGLCAAWPPFESRNETTGEIEGFDVDLAKALGEELGVEVEIIDAEWQALLGGLSKGDYDTLITCMSKKEASVENVEMSDVYYELNDVIVVRNDNNEINSVSDLSGKIVGVQLGSGSEQAVDALSGIQEIKRYNYNPEAMIDLQNNRSDAVVVGYTYALSEISKYPDLKVLDTPVASAEIVMVQKEGAEELTAKLNEALSNIKENGKYDEIQDKWLSLEEGHHHHHH
MTRVAINGFGRIGRMVFRQAIKESAFEIVAINASYPSETLAHLIKYDTVHGKFDGTVEAFEDHLLVDGKMIRLLNNRDPKELPWTDLGVEVVIEATGKFNSKEKAILHVEAGAKKVILTAPGKNEDVTIVVGVNEDQLDITKHTVISNASCTTNCLAPVVKVLDEQFGIENGLMTTVHAYTNDQKNIDNPHKDLRRARACGQSIIPTTTGAAKALAKVLPHLNGKLHGMALRVPTPNVSLVDLVVDVKRDVTVEAINDAFKTVANGALKGIVEFSEEPLVSIDFNTNTHSAIIDGLSTMVMGDRKVKVLAWYDNEWGYSRRVVDLVTLVVDELAKQENVQHI
GAMEKFKTLLYDIPIECMEVSEEIISYAKLQLGKKLNDSIYVSLTDHINFAIQRNQKGLDIKNALLWETKRLYKDEFAIGKEALVMVKNKTGVSLPEDEAGFIALHIVNAELNEEMPNIINITKVMEEILSIVKYHFKIEFNEESLHYYRFVTDLKFFAQRLFNGTHMESEDDFLLDTVKEKYHRAYECTKKIQTYIEREYEHKLTSDELLYLTIDIERVVKQA
MPVKIPDHLPAAGILESENIFVMSETRAANQDIRPMKVLILNLMPNKIETETQLLRLLGNTPLQVDVDLLRIHDKESKHTSIDHMNTFYRDFEDVRHKNYDGLIITGAPLGQIDFEDVTYWDHIREIIDWSQQHVTSVLFLCWAAHAGLYHLYGLNRKILEQKRSGVFVHRRTCQHFPLLRGFDDEFFAPHSRFAEMDVEEIRQHPQLQLLAESDEAGAYLVLSRNNRNLFVMGHPEYQKSTLNDEYHRDLAQSLNPNVPQNYYRNDDPKADAIARWHSHGSLLVSNWLNYYVYQLTPYDLSDMTAMTPWESQMAGDPLEHHHHHH
